From the supplement of paper PMC9233669
Fewer inactive variants are shown than the library holds.

Experiments:
biotinyl-Leu-oxazolone = test: self-aminoacylation, catalytic enhancement (BLO) (fold over background); higher = more active; k-Seq, kA / k0A0; sequences stand for … in GGGAAUGGAUCCACAUCUACGAAUUC…UUCACUGCAGACUUGACGAAGCUG
Method in brief: (§1)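 Mutagenized RNA pools (0.43 μM; 21-nt variable region) were treated with 2–1250 μM of each biotinyl-aminoacyl-oxazolone. Conditions were 50 μL HEPES/NaCl/KCl/MgCl2/CaCl2 buffer, 5% acetonitrile, pH 6.9–7.0, room temperature, 90 minutes. Catalytic enhancement, the median kA relative to the uncatalyzed rate, was derived from streptavidin capture, qPCR and Illumina sequencing.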

biotinyl-Ile-oxazolone = test: self-aminoacylation, catalytic enhancement (BIO) (fold over background); higher = more active; k-Seq, kA / k0A0; sequences stand for … in GGGAAUGGAUCCACAUCUACGAAUUC…UUCACUGCAGACUUGACGAAGCUG
Method in brief: as §1

biotinyl-Phe-oxazolone = test: self-aminoacylation, catalytic enhancement (BFO) (fold over background); higher = more active; k-Seq, kA / k0A0; sequences stand for … in GGGAAUGGAUCCACAUCUACGAAUUC…UUCACUGCAGACUUGACGAAGCUG
Method in brief: as §1

biotinyl-Trp-oxazolone = test: self-aminoacylation, catalytic enhancement (BWO) (fold over background); higher = more active; k-Seq, kA / k0A0; sequences stand for … in GGGAAUGGAUCCACAUCUACGAAUUC…UUCACUGCAGACUUGACGAAGCUG
Method in brief: as §1

biotinyl-Val-oxazolone = test: self-aminoacylation, catalytic enhancement (BVO) (fold over background); higher = more active; k-Seq, kA / k0A0; sequences stand for … in GGGAAUGGAUCCACAUCUACGAAUUC…UUCACUGCAGACUUGACGAAGCUG
Method in brief: as §1

biotinyl-Met-oxazolone = test: self-aminoacylation, catalytic enhancement (BMO) (fold over background); higher = more active; k-Seq, kA / k0A0; sequences stand for … in GGGAAUGGAUCCACAUCUACGAAUUC…UUCACUGCAGACUUGACGAAGCUG
Method in brief: as §1

Sequence	self-aminoacylation (biotinyl-Leu-oxazolone)	self-aminoacylation (biotinyl-Ile-oxazolone)	self-aminoacylation (biotinyl-Phe-oxazolone)	self-aminoacylation (biotinyl-Trp-oxazolone)	self-aminoacylation (biotinyl-Val-oxazolone)	self-aminoacylation (biotinyl-Met-oxazolone)
CUACUUAAAACAAACGGUCUG [Fam1A.1 aminoacylation ribozyme variant]	0.933	0.911	0.836	0.67	0.895	0.871
CUACUUAAAACAAGCGGUCUG [Fam1A.1 aminoacylation ribozyme variant]	0.836	1.04	0.744	0.982	0.902	0.926
CUACUUAAAACAAUCGGUCCG [Fam1A.1 aminoacylation ribozyme variant]	0.908	0.878	0.603	0.709	0.835	1.12
CUACUUAAAACAAUCGGUCUA [Fam1A.1 aminoacylation ribozyme variant]	0.602	0.766	0.81	0.711	0.894	0.729
CUACUUAAAACUAUCGGUCUG [Fam1A.1 aminoacylation ribozyme variant]	0.97	1.11	0.83	0.746	1.06	0.922
CUACUUAAGACAAUCGGUCUG [Fam1A.1 aminoacylation ribozyme variant]	0.668	0.775	0.817	0.71	0.783	0.909
CUACUUCAAAAAAUCGGCCUG [Fam1A.1 aminoacylation ribozyme variant]	1.7	1.9	15.3	13.1	1.56	1.73
CUACUUCAAAAAAUCGGUCCG [Fam1A.1 aminoacylation ribozyme variant]	0.761	0.724	1.57	1.31	0.604	0.749
CUACUUCAAAAAAUCGUUCUG [Fam1A.1 aminoacylation ribozyme variant]	0.57	0.605	1.03	0.581	0.613	0.564
CUACUUCAAACAAACGGUCGG [Fam1A.1 aminoacylation ribozyme variant]	0.809	1.05	0.694	0.585	0.944	0.726
CUACUUCAAACAACCGGUAUG [Fam1A.1 aminoacylation ribozyme variant]	0.803	0.785	0.739	0.873	0.805	0.707
CUACUUCAAACAACCGGUCGG [Fam1A.1 aminoacylation ribozyme variant]	1.24	0.978	1.17	0.808	1.08	1.05
CUACUUCAAACAACCUGUCUG [Fam1A.1 aminoacylation ribozyme variant]	0.589	0.74	0.494	0.325	0.736	0.52
CUACUUCAAACAAGCCGUCUG [Fam1A.1 aminoacylation ribozyme variant]	0.872	0.78	0.59	0.926	0.746	0.925
CUACUUCAAACAAGCGGGCUG [Fam1A.1 aminoacylation ribozyme variant]	1.38	1.79	0.943	1.88	1.41	1.38
CUACUUCAAACAAGCGGUUUG [Fam1A.1 aminoacylation ribozyme variant]	0.705	0.89	0.557	0.559	0.701	0.637
CUACUUCAAACAAGGGGUCUG [Fam1A.1 aminoacylation ribozyme variant]	0.748	0.773	0.71	0.593	0.801	0.746
CUACUUCAAACAAUAGGUCUC [Fam1A.1 aminoacylation ribozyme variant]	0.493	0.666	1.03	0.459	0.657	0.535
CUACUUCAAACAAUAGGUCUU [Fam1A.1 aminoacylation ribozyme variant]	0.827	0.947	0.985	0.538	0.828	0.75
CUACUUCAAACAAUCAGCCUG [Fam1A.1 aminoacylation ribozyme variant]	1.01	0.99	21	9.56	1.17	0.824
CUACUUCAAACAAUCAGUCCG [Fam1A.1 aminoacylation ribozyme variant]	0.623	0.632	10.8	4.05	0.783	0.753

Sequence	self-aminoacylation (biotinyl-Leu-oxazolone)	self-aminoacylation (biotinyl-Ile-oxazolone)	self-aminoacylation (biotinyl-Phe-oxazolone)	self-aminoacylation (biotinyl-Trp-oxazolone)	self-aminoacylation (biotinyl-Val-oxazolone)	self-aminoacylation (biotinyl-Met-oxazolone)
CUACUUCAAACAAUCAUUCUG [Fam1A.1 aminoacylation ribozyme variant]	0.513	0.616	3.72	1.55	0.577	0.488
CUACUUCAAACAAUCCGUCUU [Fam1A.1 aminoacylation ribozyme variant]	0.802	0.814	0.785	0.691	0.862	0.764
CUACUUCAAACAAUCGACCUG [Fam1A.1 aminoacylation ribozyme variant]	0.45	0.608	1.6	0.661	0.636	0.545
CUACUUCAAACAAUCGAUCGG [Fam1A.1 aminoacylation ribozyme variant]	0.721	0.647	0.743	0.676	0.73	0.56
CUACUUCAAACAAUCGAUCUG [Fam1A.1 aminoacylation ribozyme variant]	0.572	0.663	3.4	1.34	0.693	0.574
CUACUUCAAACAAUCGCUCCG [Fam1A.1 aminoacylation ribozyme variant]	0.775	0.768	1.08	1.02	0.926	0.713
CUACUUCAAACAAUCGGACAG [Fam1A.1 aminoacylation ribozyme variant]	0.672	0.782	1.19	0.656	0.709	0.718
CUACUUCAAACAAUCGGACUU [Fam1A.1 aminoacylation ribozyme variant]	0.665	0.788	1.04	1.07	0.85	0.737
CUACUUCAAACAAUCGGAGUG [Fam1A.1 aminoacylation ribozyme variant]	4.96	3.06	6.37	3.77	2.52	3.25
CUACUUCAAACAAUCGGCCUA [Fam1A.1 aminoacylation ribozyme variant]	1.25	1.48	2.51	1.43	1.16	1.39
CUACUUCAAACAAUCGGGCGG [Fam1A.1 aminoacylation ribozyme variant]	1.31	1.63	1.71	1.79	1.4	1.53
CUACUUCAAACAAUCGGUAUC [Fam1A.1 aminoacylation ribozyme variant]	0.554	0.635	2.2	0.994	0.594	0.541
CUACUUCAAACAAUCGGUGUA [Fam1A.1 aminoacylation ribozyme variant]	1.12	0.983	1.33	0.989	0.946	1.05
CUACUUCAAACAAUCGGUGUC [Fam1A.1 aminoacylation ribozyme variant]	0.635	0.613	1.18	0.851	0.546	0.654
CUACUUCAAACAAUCGUUAUG [Fam1A.1 aminoacylation ribozyme variant]	0.523	0.683	0.899	0.59	0.627	0.48
CUACUUCAAACAAUCGUUCCG [Fam1A.1 aminoacylation ribozyme variant]	0.786	0.724	0.562	0.587	0.66	0.516
CUACUUCAAACAAUCGUUUUG [Fam1A.1 aminoacylation ribozyme variant]	0.568	0.758	0.98	0.576	0.669	0.603
CUACUUCAAACAAUCUAUCUG [Fam1A.1 aminoacylation ribozyme variant]	0.485	0.507	0.981	0.474	0.579	0.461
CUACUUCAAACAAUCUGUCUU [Fam1A.1 aminoacylation ribozyme variant]	0.576	0.872	0.839	0.495	0.74	0.559
CUACUUCAAACAAUCUGUUUG [Fam1A.1 aminoacylation ribozyme variant]	0.76	0.788	0.912	0.635	0.838	0.713
CUACUUCAAACAAUGGGUCAG [Fam1A.1 aminoacylation ribozyme variant]	0.651	0.6	0.92	0.5	0.589	0.648
